Measurements published in article PMC11321042, “An invariant C-terminal tryptophan in McdB mediates its interaction and positioning function with carboxysomes” (Molecular Biology of the Cell, 2024).

Target: the molecule itself
Test: SEC-MALS; 50 µl at 1.5 mg/ml on a Shodex PROTEIN KW-804 column, 0.4 ml/min, 150 mM KCl, 20 mM Tris-HCl pH 8.2

Protein	stoichiometry N
Maintenance of carboxysome distribution protein B (McdB) from Synechococcus elongatus PCC 7942, wild type (natural protein, UniProt Q8GJM6 1-152, looked up, McdB of Synechococcus elongatus PCC 7942; also called Se McdB; β-McdB; source: E. coli BL21-AI, purified (HisTrap, Ulp1 cleavage, SEC); not shown: His-SUMO, N-terminal, cleaved) MTDAFDRLKKRSRTPIAREGSLTTGPELSDRPLQLLPREFETFCDRYAVHAGDVIEAALDLVLLDPDLQQRLLQRLRQGNGSDRVWLGTACPRSWQQQLQQQAQDQGLSEADLLQEAIAQRLDLVLGQTTLREEVTLLRQELDQLKRKLHGW	6
Se McdB[∆W152] (natural protein, Synechococcus elongatus PCC 7942, UniProt Q8GJM6 1-152, looked up, McdB of Synechococcus elongatus PCC 7942 with the final C-terminal tryptophan W152 deleted; Parent is m1; source: E. coli BL21-AI, purified (HisTrap, Ulp1 cleavage, SEC); not shown: His-SUMO, N-terminal, cleaved) MTDAFDRLKKRSRTPIAREGSLTTGPELSDRPLQLLPREFETFCDRYAVHAGDVIEAALDLVLLDPDLQQRLLQRLRQGNGSDRVWLGTACPRSWQQQLQQQAQDQGLSEADLLQEAIAQRLDLVLGQTTLREEVTLLRQELDQLKRKLHG	6
